Tests used:
[1] = molecular target: EXO1-FLAG, full length, as printed for Fig. 3h and Fig. 6d (UniProt Q9UQ84); assay: pull-down (anti-FLAG immobilised EXO1-FLAG, Western blot quantification); details: n = 3 independent experiments, parent: est. 1.0, read off a plot
[2] = molecular target: T1, EXO1-FLAG, full length, for Fig. 3h and Fig. 6d, Q9UQ84; assay: as above; details: chain shown with the change; n = 3 independent experiments; p < 0.0001 vs WT; parent: est. 1.0; read off a plot
T1 chain: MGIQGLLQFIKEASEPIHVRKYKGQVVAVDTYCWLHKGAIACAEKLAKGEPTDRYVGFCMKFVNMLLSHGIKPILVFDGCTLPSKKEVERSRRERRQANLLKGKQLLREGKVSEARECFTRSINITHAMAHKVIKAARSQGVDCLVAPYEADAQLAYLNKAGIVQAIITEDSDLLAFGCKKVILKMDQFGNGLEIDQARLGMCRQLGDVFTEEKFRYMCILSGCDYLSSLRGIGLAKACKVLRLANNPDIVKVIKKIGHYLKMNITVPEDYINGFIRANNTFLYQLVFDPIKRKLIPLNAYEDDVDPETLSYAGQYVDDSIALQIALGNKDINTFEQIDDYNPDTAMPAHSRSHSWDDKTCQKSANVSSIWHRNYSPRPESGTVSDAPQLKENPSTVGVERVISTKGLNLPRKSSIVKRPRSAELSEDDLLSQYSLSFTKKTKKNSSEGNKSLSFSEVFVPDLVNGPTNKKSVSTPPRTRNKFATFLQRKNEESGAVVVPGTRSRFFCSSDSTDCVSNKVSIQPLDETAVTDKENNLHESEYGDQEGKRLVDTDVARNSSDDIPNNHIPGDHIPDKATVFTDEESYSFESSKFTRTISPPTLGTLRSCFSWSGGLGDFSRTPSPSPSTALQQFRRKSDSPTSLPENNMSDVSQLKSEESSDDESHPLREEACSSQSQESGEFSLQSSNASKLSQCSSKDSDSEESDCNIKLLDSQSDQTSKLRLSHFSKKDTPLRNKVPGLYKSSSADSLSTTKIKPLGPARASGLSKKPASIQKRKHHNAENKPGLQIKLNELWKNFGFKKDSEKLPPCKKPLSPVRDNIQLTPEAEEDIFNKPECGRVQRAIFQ

Human MutLγ (MLH1-MLH3) = molecular target: T2, Human MutLγ (MLH1-MLH3) (human, UniProt P40692 1-756; Q9UHC1 1-1453); assay: pull-down; MutLγ (bait, 1 μg) held by anti-MLH1 antibody on protein G magnetic beads; EXO1-FLAG variants (prey, 1 μg) added; 25 mM Tris-HCl pH 7.5, 3 mM EDTA, 1 mM DTT, 20 μg/ml BSA, 50 mM NaCl, 4 °C, 1 h; washes with 100 mM NaCl, 0.05% Triton X-100; Western blot; details: both partners purified
T2 construct: MLH1, human, from pFB-FLAG-hMLH1co; MLH3, human, from pFB-His-MBP-hMLH3co; The methods say that the MBP tag was cleaved with PreScission protease; also called FLAG-MLH1 and MBP-MLH3; FLAG-MLH1-MBP-MLH3; source: Sf9, purified (amylose resin, M2 anti-FLAG resin); not shown: FLAG, N-terminal, kept; MBP, N-terminal, kept

## Human MutSγ (MSH4-MSH5) (from UniProt O15457;O43196) MSH4:F225E
[1]; p = 0.22 vs WT
  ratio to parent: 0.66 arb. units

## Human MutSγ (MSH4-MSH5) (from UniProt O15457;O43196) MSH4:F288E
[1]; p = 0.19 vs WT
  ratio to parent: 0.73 arb. units

## Human MutSγ (MSH4-MSH5) (from UniProt O15457;O43196) MSH4:F225E; MSH4:F288E
[1]; p = 0.005 vs WT
  ratio to parent: 0.2 arb. units

B1: Human MutSγ (MSH4-MSH5), O15457;O43196 MSH4:T238E; MSH4:Y244D; MSH4:F288E (protein)
chain 1: MLRPEISSTSPSAPAVSPSSGETRSPQGPRYNFGLQETPQSRPSVQVVSASTCPGTSGAAGDRSSSSSSLPCPAPNSRPAQGSYFGNKRAYAENTVASNFTFGASSSSARDTNYPQTLKTPLSTGNPQRSGYKSWTPQVGYSASSSSAISAHSPSVIVAVVEGRGLARGEIGMASIDLKNPQIILSQFADNTTYAKVITKLKILSPLEIIMSNTACAVGNSTKLFTLITENFKNVNFETIQRKDFNETKGLEYIEQLCIAEFSTVLMEVQSKYYCLAAVAALLKYVEEIQNSVYAPKSLKICFQGSEQTAMIDSSSAQNLELLINNQDYRNNHTLFGVLNYTKTPGGSRRLRSNILEPLVDIETINMRLDCVQELLQDEELFFGLQSVISRFLDTEQLLSVLVQIPKQDTVNAAESKITNLIYLKHTLELVDPLKIAMKNCNTPLLRAYYGSLEDKRFGIILEKIKTVINDDARYMKGCLNMRTQKCYAVRSNINEFLDIARRTYTEIVDDIAGMISQLGEKYSLPLRTSFSSARGFFIQMTTDCIALPSDQLPSEFIKISKVKNSYSFTSADLIKMNERCQESLREIYHMTYMIVCKLLSEIYEHIHCLYKLSDTVSMLDMLLSFAHACTLSDYVRPEFTDTLAIKQGWHPILEKISAEKPIANNTYVTEGSNFLIITGPNMSGKSTYLKQIALCQIMAQIGSYVPAEYSSFRIAKQIFTRISTDDDIETNSSTFMKEMKEIAYILHNANDKSLILIDELGRGTNTEEGIGICYAVCEYLLSLKAFTLFATHFLELCHIDALYPNVENMHFEVQHVKNTSRNKEAILYTYKLSKGLTEEKNYGLKAAEVSSLPPSIVLDAKEITTQITRQILQNQRSTPEMERQRAVYHLATRLVQTARNSQLDPDSLRIYLSNLKKKYKEDFPRTEQVPEKTEE
chain 2: MASLGANPRRTPQGPRPGAASSGFPSPAPVPGPREAEEEEVEEEEELAEIHLCVLWNSGYLGIAYYDTSDSTIHFMPDAPDHESLKLLQRVLDEINPQSVVTSAKQDENMTRFLGKLASQEHREPKRPEIIFLPSVDFGLEISKQRLLSGNYSFIPDAMTATEKILFLSSIIPFDCLLTVRALGGLLKFLGRRRIGVELEDYNVSVPILGFKKFMLTHLVNIDQDTYSVLQIFKSESHPSVYKVASGLKEGLSLFGILNRCHCKWGEKLLRLWFTRPTHDLGELSSRLDVIQFFLLPQNLDMAQMLHRLLGHIKNVPLILKRMKLSHTKVSDWQVLYKTVYSALGLRDACRSLPQSIQLFRDIAQEFSDDLHHIASLIGKVVDFEGSLAENRFTVLPNIDPEIDEKKRRLMGLPSFLTEVARKELENLDSRIPSCSVIYIPLIGFLLSIPRLPSMVEASDFEINGLDFMFLSEEKLHYRSARTKELDALLGDLHCEIRDQETLLMYQLQCQVLARAAVLTRVLDLASRLDVLLALASAARDYGYSRPRYSPQVLGVRIQNGRHPLMELCARTFVPNSTECGGDKGRVKVITGPNSSGKSIYLKQVGLITFMALVGSFVPAEEAEIGAVDAIFTRIHSCESISLGLSTFMIDLNQVAKAVNNATAQSLVLIDEFGKGTNTVDGLALLAAVLRHWLARGPTCPHIFVATNFLSLVQLQLLPQGPLVQYLTMETCEDGNDLVFFYQVCEGVAKASHASHTAAQAGLPDKLVARGKEVSDLIRSGKPIKPVKDLLKKNQMENCQTLVDKFMKLDLEDPNLDLNVFMSQEVLPAATSIL
[2]
  ratio to parent: 0.08 arb. units

B2: Nuclease-deficient human EXO1 (D173A)-FLAG, full length (enzyme, UniProt Q9UQ84 1-846, looked up)
chain: MGIQGLLQFIKEASEPIHVRKYKGQVVAVDTYCWLHKGAIACAEKLAKGEPTDRYVGFCMKFVNMLLSHGIKPILVFDGCTLPSKKEVERSRRERRQANLLKGKQLLREGKVSEARECFTRSINITHAMAHKVIKAARSQGVDCLVAPYEADAQLAYLNKAGIVQAIITEDSALLAFGCKKVILKMDQFGNGLEIDQARLGMCRQLGDVFTEEKFRYMCILSGCDYLSSLRGIGLAKACKVLRLANNPDIVKVIKKIGHYLKMNITVPEDYINGFIRANNTFLYQLVFDPIKRKLIPLNAYEDDVDPETLSYAGQYVDDSIALQIALGNKDINTFEQIDDYNPDTAMPAHSRSHSWDDKTCQKSANVSSIWHRNYSPRPESGTVSDAPQLKENPSTVGVERVISTKGLNLPRKSSIVKRPRSAELSEDDLLSQYSLSFTKKTKKNSSEGNKSLSFSEVFVPDLVNGPTNKKSVSTPPRTRNKFATFLQRKNEESGAVVVPGTRSRFFCSSDSTDCVSNKVSIQPLDETAVTDKENNLHESEYGDQEGKRLVDTDVARNSSDDIPNNHIPGDHIPDKATVFTDEESYSFESSKFTRTISPPTLGTLRSCFSWSGGLGDFSRTPSPSPSTALQQFRRKSDSPTSLPENNMSDVSQLKSEESSDDESHPLREEACSSQSQESGEFSLQSSNASKLSQCSSKDSDSEESDCNIKLLDSQSDQTSKLRLSHFSKKDTPLRNKVPGLYKSSSADSLSTTKIKPLGPARASGLSKKPASIQKRKHHNAENKPGLQIKLNELWKNFGFKKDSEKLPPCKKPLSPVRDNIQLTPEAEEDIFNKPECGRVQRAIFQ
notes: EXO1, human, from pFB-MBP-PP-EXO1(D173A)-1xFLAG; last residue at position 846; also called nuclease-dead EXO1 (D173A); source: Sf9, purified (amylose resin, PreScission cleavage, FLAG M2 resin); not shown: MBP, N-terminal, cleaved; FLAG, C-terminal, kept
Human MutLγ (MLH1-MLH3)
  binding result: binds

B3: EXO1 (D173A I403E)-FLAG (enzyme, human, UniProt Q9UQ84 1-846, looked up)
chain: MGIQGLLQFIKEASEPIHVRKYKGQVVAVDTYCWLHKGAIACAEKLAKGEPTDRYVGFCMKFVNMLLSHGIKPILVFDGCTLPSKKEVERSRRERRQANLLKGKQLLREGKVSEARECFTRSINITHAMAHKVIKAARSQGVDCLVAPYEADAQLAYLNKAGIVQAIITEDSALLAFGCKKVILKMDQFGNGLEIDQARLGMCRQLGDVFTEEKFRYMCILSGCDYLSSLRGIGLAKACKVLRLANNPDIVKVIKKIGHYLKMNITVPEDYINGFIRANNTFLYQLVFDPIKRKLIPLNAYEDDVDPETLSYAGQYVDDSIALQIALGNKDINTFEQIDDYNPDTAMPAHSRSHSWDDKTCQKSANVSSIWHRNYSPRPESGTVSDAPQLKENPSTVGVERVESTKGLNLPRKSSIVKRPRSAELSEDDLLSQYSLSFTKKTKKNSSEGNKSLSFSEVFVPDLVNGPTNKKSVSTPPRTRNKFATFLQRKNEESGAVVVPGTRSRFFCSSDSTDCVSNKVSIQPLDETAVTDKENNLHESEYGDQEGKRLVDTDVARNSSDDIPNNHIPGDHIPDKATVFTDEESYSFESSKFTRTISPPTLGTLRSCFSWSGGLGDFSRTPSPSPSTALQQFRRKSDSPTSLPENNMSDVSQLKSEESSDDESHPLREEACSSQSQESGEFSLQSSNASKLSQCSSKDSDSEESDCNIKLLDSQSDQTSKLRLSHFSKKDTPLRNKVPGLYKSSSADSLSTTKIKPLGPARASGLSKKPASIQKRKHHNAENKPGLQIKLNELWKNFGFKKDSEKLPPCKKPLSPVRDNIQLTPEAEEDIFNKPECGRVQRAIFQ
notes: EXO1, human, derivative of pFB-MBP-PP-EXO1(D173A)-1xFLAG; also called EXO1 (I403E); source: Sf9, purified (amylose resin, PreScission cleavage, FLAG M2 resin); not shown: MBP, N-terminal, cleaved; FLAG, C-terminal, kept
Human MutLγ (MLH1-MLH3)
  binding result: binds

B4: EXO1 (D173A MIP)-FLAG (F506A and F507A in the MIP motif) (enzyme, human, UniProt Q9UQ84 1-846, looked up)
chain: MGIQGLLQFIKEASEPIHVRKYKGQVVAVDTYCWLHKGAIACAEKLAKGEPTDRYVGFCMKFVNMLLSHGIKPILVFDGCTLPSKKEVERSRRERRQANLLKGKQLLREGKVSEARECFTRSINITHAMAHKVIKAARSQGVDCLVAPYEADAQLAYLNKAGIVQAIITEDSALLAFGCKKVILKMDQFGNGLEIDQARLGMCRQLGDVFTEEKFRYMCILSGCDYLSSLRGIGLAKACKVLRLANNPDIVKVIKKIGHYLKMNITVPEDYINGFIRANNTFLYQLVFDPIKRKLIPLNAYEDDVDPETLSYAGQYVDDSIALQIALGNKDINTFEQIDDYNPDTAMPAHSRSHSWDDKTCQKSANVSSIWHRNYSPRPESGTVSDAPQLKENPSTVGVERVISTKGLNLPRKSSIVKRPRSAELSEDDLLSQYSLSFTKKTKKNSSEGNKSLSFSEVFVPDLVNGPTNKKSVSTPPRTRNKFATFLQRKNEESGAVVVPGTRSRAACSSDSTDCVSNKVSIQPLDETAVTDKENNLHESEYGDQEGKRLVDTDVARNSSDDIPNNHIPGDHIPDKATVFTDEESYSFESSKFTRTISPPTLGTLRSCFSWSGGLGDFSRTPSPSPSTALQQFRRKSDSPTSLPENNMSDVSQLKSEESSDDESHPLREEACSSQSQESGEFSLQSSNASKLSQCSSKDSDSEESDCNIKLLDSQSDQTSKLRLSHFSKKDTPLRNKVPGLYKSSSADSLSTTKIKPLGPARASGLSKKPASIQKRKHHNAENKPGLQIKLNELWKNFGFKKDSEKLPPCKKPLSPVRDNIQLTPEAEEDIFNKPECGRVQRAIFQ
notes: EXO1, human, derivative of pFB-MBP-PP-EXO1(D173A)-1xFLAG; also called EXO1 MIP mutants; MIP mutations; source: Sf9, purified (amylose resin, PreScission cleavage, FLAG M2 resin); not shown: MBP, N-terminal, cleaved; FLAG, C-terminal, kept
Human MutLγ (MLH1-MLH3)
  binding result: binds
